Numbering of substitutions follows the chain as printed.
Legend:
human C4b (human) [1] = target: T1, human C4b (human) (UniProt P0C0L5)
T1 sequence: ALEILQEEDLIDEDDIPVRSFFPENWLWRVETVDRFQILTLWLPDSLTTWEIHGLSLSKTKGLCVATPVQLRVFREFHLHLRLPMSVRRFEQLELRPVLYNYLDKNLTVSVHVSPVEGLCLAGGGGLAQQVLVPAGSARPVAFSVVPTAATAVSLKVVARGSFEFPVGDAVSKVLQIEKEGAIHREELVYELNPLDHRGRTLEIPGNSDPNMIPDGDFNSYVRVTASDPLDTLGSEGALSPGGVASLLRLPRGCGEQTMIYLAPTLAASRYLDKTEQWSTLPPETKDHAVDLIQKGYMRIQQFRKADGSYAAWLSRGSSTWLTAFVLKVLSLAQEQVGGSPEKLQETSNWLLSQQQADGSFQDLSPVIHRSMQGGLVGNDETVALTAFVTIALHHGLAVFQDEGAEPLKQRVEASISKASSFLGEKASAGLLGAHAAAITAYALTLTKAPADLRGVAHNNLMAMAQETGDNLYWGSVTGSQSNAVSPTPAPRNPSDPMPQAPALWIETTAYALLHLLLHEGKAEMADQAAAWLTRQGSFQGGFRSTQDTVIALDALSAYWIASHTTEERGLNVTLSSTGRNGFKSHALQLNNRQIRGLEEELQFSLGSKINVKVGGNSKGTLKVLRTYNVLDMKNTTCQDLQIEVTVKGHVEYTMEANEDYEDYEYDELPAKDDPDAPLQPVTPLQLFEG

[2] = target: soluble human C3b (human) (UniProt P01024)
human C4b (human) [3] = target: T2, human C4b (human) (UniProt P0C0L4)
T2 sequence: T1 sequence with T151A, G317D, L364P, S365C, I368L, H369D, S420N, A451V, R454L, A530S

[4] = target: soluble human C3b (human) (UniProt P01024); remark: listed apart in the source
C3b [5] = target: T3, C3b (human, UniProt P01024)
human C4b (human) [6] = target: T1, human C4b (human); remark: listed apart in the source
C3b [7] = target: T3, C3b; remark: listed apart in the source
human C4b (human) [8] = target: T2, human C4b (human); remark: listed apart in the source

C4c EC50 (human C4b (human) [1]) [nM] | iC3b EC50 [2] [nM] | C4b Screen Ref Fold (fold of CFI-HSA wild type) (human C4b (human) [3]) | iC3b Screen Ref Fold (fold of CFI-HSA wild type) [4] | C3b cleavage, % Activity (C3b [5]) [%] | C4b Screen Ref Fold (fold vs CFI-HSA wild type) (human C4b (human) [6]) | iC3b Screen Ref Fold (fold vs CFI-HSA wild type) [4] | C3b cleavage rate, kmut/kwt (C3b [7]) | C4c EC50 (nM) (human C4b (human) [8]) | Substance
5 | 2.2 | 4.28 | 1.74 |  |  |  |  |  | CFI-HSA variant E457G; E461Q; N422K; T377G (enzyme)
 |  |  |  | 16 | 0.17 | 0.05 |  |  | CFI-HSA variant F29A (enzyme)
> 1000 | 14.6 | 0.1 | 1.57 |  |  |  |  |  | CFI-HSA variant D425K; Y408M; K504R (enzyme)
4.6 | 4 | 4.41 | 1.29 |  |  |  |  |  | CFI-HSA variant D425R; P558S; E457G; E461Q; N531G (enzyme)
6.8 | 3.3 | 3.88 | 2.74 |  |  |  |  |  | CFI-HSA variant N531G; N422K; T377G (enzyme)
4.2 | 3.2 | 4.39 | 1.28 |  |  |  |  |  | CFI-HSA variant N531G; E457G; N422K; T377G (enzyme)
 |  |  |  | 0 |  |  |  |  | CFI-HSA variant S507A (active site mutant) (enzyme)
> 1000 | 5.8 | 0.08 | 2.17 |  |  |  |  |  | CFI-HSA variant D425K; E530F (enzyme)
5 | 2.4 | 4.24 | 1.7 |  |  |  |  |  | CFI-HSA variant N531G; E461Q; N422K; T377G (enzyme)
3.5 | 3.7 | 3.92 | 0.78 |  |  |  |  |  | CFI-HSA variant T377G; N422K; E457G; E461Q; N531G (enzyme)
22.4 | 38.2 | 4.28 | 0.36 |  |  |  |  |  | CFI-HSA variant R557A; N531G; Y403F; K504Y; E457G; E461Q (enzyme)
51.1 | 4.1 | 2.54 | 2.67 |  |  |  |  |  | CFI-HSA variant N422K; E461Q (enzyme)
38.6 | 156 | 3.81 | 0.11 |  |  |  |  |  | CFI-HSA variant R557A; N531D; Y403F; K504Y (enzyme)
153 | 7 | 0.77 | 2.11 |  |  |  |  |  | CFI-HSA variant D425K; P558S (enzyme)
76.3 | 334 | 3.28 | 0.03 |  |  |  |  |  | CFI-HSA variant R557A; N531M; Y403F; K504Y (enzyme)
7.2 | 3.7 | 4.01 | 1.81 |  |  |  |  |  | CFI-HSA variant N531G; E461Q; N422K (enzyme)
 |  |  |  | 82 | 0.07 | 0.38 |  |  | CFI-HSA variant S250A (enzyme)
 |  |  |  | 7 | 0.14 | 0.05 |  |  | CFI-HSA variant Y20A (enzyme)
7.9 | 3.6 | 3.96 | 2.75 |  |  |  |  |  | CFI-HSA variant E461Q; N422K; T377G (enzyme)
 |  |  |  | 79 | 0.09 | 0.43 |  |  | CFI-HSA variant E38A (enzyme)
6.2 | 3.2 | 4.48 | 0.99 |  |  |  |  |  | CFI-HSA variant D425R; E530F; E457G; E461Q; N531G (enzyme)

The next lines start with the substance.

Substance | C4c EC50 (human C4b (human) [1]) [nM] | iC3b EC50 [2] [nM] | C4b Screen Ref Fold (fold of CFI-HSA wild type) (human C4b (human) [3]) | iC3b Screen Ref Fold (fold of CFI-HSA wild type) [4] | C3b cleavage, % Activity (C3b [5]) [%] | C4b Screen Ref Fold (fold vs CFI-HSA wild type) (human C4b (human) [6]) | iC3b Screen Ref Fold (fold vs CFI-HSA wild type) [4] | C3b cleavage rate, kmut/kwt (C3b [7]) | C4c EC50 (nM) (human C4b (human) [8])
CFI-HSA variant Δ(K1-P305) (HSA-SPD) (enzyme) |  |  |  |  | 35 |  |  |  | 
CFI-HSA variant E457G; N422K; T377G (enzyme) | 7.5 | 3.5 | 4.25 | 2.99 |  |  |  |  | 
CFI-HSA variant Y20F (enzyme) |  |  |  |  | 80 | 0.27 | 0.67 |  | 
CFI-HSA variant M220A + K221Q (enzyme) |  |  |  |  | 92 |  |  |  | 
CFI-HSA variant S250A + D425R (enzyme) |  |  |  |  |  |  |  | 1 | 
CFI-HSA variant R557A; N531M (enzyme) | 78.7 | 288 | 2.91 | 0.09 |  |  |  |  | 
CFI-HSA variant Y20F + D425R (enzyme) |  |  |  |  |  |  |  | 1 | 
CFI-HSA variant E38A + D425R (enzyme) |  |  |  |  |  |  |  | 1 | 
CFI-HSA variant N531G; E457G; T377G (enzyme) | 2.9 | 4.5 | 4.33 | 1.54 |  |  |  |  | 
CFI-HSA variant D26A (enzyme) |  |  |  |  | 94 |  | 0.34 |  | 
CFI-HSA variant T377G; N422K (enzyme) | 37.4 | 4.1 | 2.25 | 2.55 |  |  |  |  | 
CFI-HSA variant ΔC-term (Δ558-PFISQYNV (SEQ ID NO: 14)-565) (enzyme) |  |  |  |  | 7 | 0.11 | 0.03 |  | 
CFI-HSA variant E457G-E461Q-F464Y (enzyme) |  |  |  |  | 106 |  |  |  | 
CFI-HSA variant D425K; Y408M (enzyme) | > 1000 | 9.4 | 0.19 | 1.88 |  |  |  |  | 
CFI-HSA variant D425K; E530F; E457G; E461Q; N531G (enzyme) | 6.4 | 3.4 | 4.4 | 1.08 |  |  |  |  | 
CFI-HSA variant N531G; E461Q; T377G (enzyme) | 5 | 4.9 | 4.1 | 2.28 |  |  |  |  | 
CFI-HSA variant R557A; N531M; Y403F; K504Y; E457G; E461Q (enzyme) | 26.3 | 79.4 | 3.97 | 0.21 |  |  |  |  | 
CFI-HSA variant D425K; Y408M; F537K (enzyme) | > 1000 | 10.8 | 0.09 | 1.52 |  |  |  |  | 
CFI-HSA variant 514-MDANNVT (SEQ ID NO: 13)-520 → NG (hTrypsin 200-loop swap) (enzyme) |  |  |  |  | 11 |  |  |  | 
CFI-HSA variant R35A (enzyme) |  |  |  |  | 47 | 0.06 | 0.12 |  | 
CFI-HSA variant E457G; E461Q; N422K (enzyme) | 17.2 | 3.5 | 3.61 | 2.37 |  |  |  |  | 
CFI-HSA variant S250L (enzyme) |  |  |  |  | -4 |  | 0.09 |  | 
CFI-HSA variant K14A (enzyme) |  |  |  |  | 93 | 0.3 | 0.73 |  | 401
